Data on three molecules can be found in PMC12776367 (Journal of the American Society of Nephrology : JASN, 2025).

By Kd is commonly meant the free concentration of one partner at which half of the binding sites on the other are occupied at equilibrium, for simple one-to-one binding. Read a low Kd as a tighter complex.

The target of experiment [1] is T1, mouse vitronectin (ab92727, Abcam) (mouse, UniProt P29788 20-478).
T1 sequence (looked up): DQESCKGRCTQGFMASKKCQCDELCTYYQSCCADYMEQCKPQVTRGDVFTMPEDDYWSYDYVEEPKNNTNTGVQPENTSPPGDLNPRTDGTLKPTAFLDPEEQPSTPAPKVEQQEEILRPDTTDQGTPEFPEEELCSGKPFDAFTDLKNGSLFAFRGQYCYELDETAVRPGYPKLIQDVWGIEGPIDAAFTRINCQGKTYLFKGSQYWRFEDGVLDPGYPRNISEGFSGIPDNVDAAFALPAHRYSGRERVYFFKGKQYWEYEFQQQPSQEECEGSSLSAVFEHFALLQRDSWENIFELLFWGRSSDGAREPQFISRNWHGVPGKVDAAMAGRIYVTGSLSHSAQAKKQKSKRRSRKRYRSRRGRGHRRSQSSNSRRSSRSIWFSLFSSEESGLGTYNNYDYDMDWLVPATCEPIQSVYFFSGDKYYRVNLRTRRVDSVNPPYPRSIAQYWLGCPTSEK
In words: BLI. Background: BLI is a label-free optical method that tracks binding on a fibre tip over time.

The target of experiment [2] is human vitronectin (2349-VN, R&D Systems) (human, UniProt P04004 20-478). In words: BLI.
Sequence of human vitronectin (2349-VN, R&D Systems) (P04004 20-478): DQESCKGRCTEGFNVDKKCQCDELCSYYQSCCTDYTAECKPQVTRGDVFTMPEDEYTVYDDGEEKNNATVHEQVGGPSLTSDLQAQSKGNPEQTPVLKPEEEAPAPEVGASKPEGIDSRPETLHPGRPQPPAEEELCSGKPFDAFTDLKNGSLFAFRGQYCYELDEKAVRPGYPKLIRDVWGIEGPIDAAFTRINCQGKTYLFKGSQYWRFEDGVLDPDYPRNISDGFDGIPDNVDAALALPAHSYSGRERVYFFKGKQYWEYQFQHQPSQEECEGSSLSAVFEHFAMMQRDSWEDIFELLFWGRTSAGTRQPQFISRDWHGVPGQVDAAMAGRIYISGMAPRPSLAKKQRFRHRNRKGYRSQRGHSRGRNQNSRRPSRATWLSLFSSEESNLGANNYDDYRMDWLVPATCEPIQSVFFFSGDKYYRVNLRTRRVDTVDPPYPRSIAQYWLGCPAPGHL

B1: His-tagged mouse testican-2 (MBS1458329, MyBioSource) (natural protein, UniProt Q9ER58 23-423, looked up)
chain: EGDAKGLKEGETPGNFMEDEQWLSSISQYSGKIKHWNRFRDEVEDDYIKSWEDNQQGDEALDTTKDPCQKVKCSRHKVCVAQGYQRAMCISRKKLEHRIKQPSLKLHGGKDSVCKPCHMAQLASVCGSDGHTYSSVCKLEQQACLSSKQLAVRCEGPCPCPTEQSTASTTDSKSETCTGQDLADLGDRLRDWFQLLRENSKQNGSANSATNPAGLDKSLGASCKDSIGWMFSKLDTSGDLFLDQTELAAINLDKYEVCIRPFFNSCDTYKDGRVSTAEWCFCFWREKPPCLAELERTQIQEAAKKKPGVFIPSCDEDGYYRKMQCDQSRGDCWCVDQLGLELTGTRMHGTPDCDDIVGFSGDFGSGVGWEDEEEKETEEAGEEAEEEEGEAGEADDGGYIW
In turn, B1 registered an equilibrium dissociation constant (Kd) in experiment [1] of 63.7 ± 2.3 nM.

B2: His-tagged human testican-2 (2328-PI, R&D Systems) (natural protein, UniProt Q92563 23-424, looked up)
chain: EGDAKGLKEGETPGNFMEDEQWLSSISQYSGKIKHWNRFRDEVEDDYIKSWEDNQQGDEALDTTKDPCQKVKCSRHKVCIAQGYQRAMCISRKKLEHRIKQPTVKLHGNKDSICKPCHMAQLASVCGSDGHTYSSVCKLEQQACLSSKQLAVRCEGPCPCPTEQAATSTADGKPETCTGQDLADLGDRLRDWFQLLHENSKQNGSASSVAGPASGLDKSLGASCKDSIGWMFSKLDTSADLFLDQTELAAINLDKYEVCIRPFFNSCDTYKDGRVSTAEWCFCFWREKPPCLAELERIQIQEAAKKKPGIFIPSCDEDGYYRKMQCDQSSGDCWCVDQLGLELTGTRTHGSPDCDDIVGFSGDFGSGVGWEDEEEKETEEAGEEAEEEEGEAGEADDGGYIW
Regarding B2, in experiment [2], the Kd amounted to 37.4 ± 0.6 nM.

B3: deglycosylated human testican-2 (natural protein, UniProt Q92563 23-424, looked up)
chain: B2 chain
modifications: deglycosylated (Protein Deglycosylation Mix II kit)
For B3, in experiment [2], the Kd came out at 348 ± 12.4 nM.
